Measured values as given in the supplement of paper PMC10567573.

B1: TRIM14 (parent)
chain: REQADSCREQLDIMNDLSNRVWSI

Variants of: B1
Assay: protein stability index of a GFP-peptide fusion (GPS, HEK-293T) (PSI 1-6); higher = more stable
Details: c terminus: a fixed tail appended
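Note: lentivirally expressed fusions sorted by FACS into six bins by GFP to DsRed ratio, PSI derived from sequencing read proportions per bin multiplied by bin number.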

Variant | protein stability index
R8H | 2.61
R8D | 3.4
R8Q | 2.64
R8T | 2.44
R8G | 2.68
R8M | 2.17
R8K | 2.29
R8S | 2.41
R8P | 3.02
R8F | 1.6
R8N | 2.51
R8E | 3.19
R8L | 1.89
R8C | 2.3
R8V | 1.8
R8I | 1.79
R8Y | 1.54
R8A | 2.47
R8W | 2.53
A4Q | 2.25
A4Y | 2.21
A4G | 2.59
A4R | 2.31
A4P | 1.76

Variant | protein stability index
A4T | 2.93
A4S | 2.27
A4K | 2.52
A4H | 2
A4E | 2.52
A4D | 2.5
A4F | 1.59
A4W | 2.34
A4L | 2.57
A4V | 2.36
A4C | 1.81
A4I | 2.29
A4N | 2.66
A4M | 3.03
E9D | 2.77
E9A | 2.03
E9S | 2.6
E9L | 2.75
E9F | 2.81
E9P | 2.3
E9T | 1.95
E9W | 3.53
E9G | 1.38
E9H | 1.48

Variant | protein stability index
E9N | 2.05
E9Y | 3.54
E9Q | 1.53
E9C | 1.84
E9M | 2.66
E9K | 1.66
E9R | 1.85
E9I | 2.44
L11M | 2.13
L11D | 3.08
L11F | 1.87
L11R | 3.11
L11C | 2.17
L11Y | 1.73
L11S | 3.03
L11W | 1.46
L11H | 2.24
L11I | 2.53
L11K | 2.38
L11G | 2.62
L11V | 2.19
L11N | 2.36
L11A | 2.1
L11P | 2.53

Variant | protein stability index
L11T | 3.1
L11E | 3.9
L11Q | 3.17
S6C | 2.01
S6V | 1.85
S6F | 1.91
S6Q | 2.21
S6I | 2.35
S6N | 2.68
S6A | 2.45
S6M | 1.93
S6P | 2.35
S6W | 2
S6D | 3.4
S6E | 2.77
S6G | 2.42
S6L | 1.93
S6Y | 2.06
S6T | 1.6
S6K | 1.78
S6R | 1.86
S6H | 2.41
Q3R | 2.42
Q3P | 2.15

Variant | protein stability index
Q3V | 1.24
Q3Y | 2.23
Q3S | 1.77
Q3W | 1.88
Q3T | 2.11
Q10H | 2.03
Q10T | 2.39
Q10W | 1.98
Q10D | 2.74
Q10Y | 2
Q10F | 2.18
Q10G | 2.18
Q10C | 2.24
Q10K | 2.16
Q10N | 2.24
Q10V | 1.57
Q10E | 2.21
Q10R | 2.38
Q10A | 1.74
Q10I | 2.63
Q10S | 1.87
Q10M | 1.81
Q10P | 2
C7W | 2.23

Variant | protein stability index
C7S | 3.21
C7F | 2.21
C7H | 3.02
C7K | 3
C7Q | 4.24
C7R | 3.42
C7N | 3.52
C7T | 3.04
C7Y | 2.2
C7I | 2.12
C7V | 2.76
C7A | 2.86
C7P | 2.74
C7D | 3.5
C7M | 2.52
C7L | 2.27
C7E | 3.96
C7G | 3.05
D5E | 2.15
D5C | 1.59
D5L | 3.46
D5Y | 1.2
D5V | 2.09
D5P | 2.03

Variant | protein stability index
D5A | 1.95
D5I | 2.84
D5S | 1.6
D5K | 3.1
D5G | 1.55
D5M | 2.1
D5Q | 2.14
D5N | 2.88
D5R | 3.62
D5T | 1.99
D5F | 1.55
D5W | 2.21
D5H | 2.23
D12E | 2.31
D12C | 1.84
D12N | 1.6
D12G | 1.77
D12I | 2.24
D12M | 1.43
D12A | 2.05
D12K | 1.92
D12F | 2.71
D12H | 2.05
